Laboratory results published in the supplement of paper PMC10567573.

B1: NCK2 (parent)
chain: YVERKNSLKKGSLVKNLKDTLGLG

Variants of: B1
Experiment: protein stability index of a GFP-peptide fusion (GPS, HEK-293T) (PSI 1-6); higher = more stable
Conditions: c terminus: a fixed tail appended
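Also: lentivirally expressed fusions sorted by FACS into six bins by GFP to DsRed ratio, PSI derived from sequencing read proportions per bin multiplied by bin number.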

Protein stability index of substitutions, site by site:
S7: V 1.94 | I 1.86 | F 2.66 | L 2.43 | M 1.88 | C 2.22 | G 1.99 | P 1.82 | E 2.9 | H 2.02 | W 3.27 | Y 1.74 | N 2.07 | R 2.22 | K 2.84 | T 2.16 | A 2.29 | Q 2.15 | D 2.57
G22: P 2.44 | L 1.51 | F 2.86 | S 2.13 | M 2.23 | R 1.97 | D 2.21 | T 2.37 | W 2.56 | Q 2.31 | I 1.9 | K 2.09 | Y 2.33 | N 2.46 | E 2.34 | H 2.01 | V 1.97 | C 2.01
G11: K 2.9 | Y 1.59 | V 2.42 | E 2.72 | W 1.93 | D 2.44 | C 2.09 | R 2.32 | I 1.68 | Q 3.13 | P 2.11 | N 2.4 | F 2.69 | A 2.18 | M 1.8 | H 2.02 | S 2.43 | T 2.06 | L 1.87
L8: G 3.27 | D 2.92 | A 2.42 | K 2.47 | V 2.16 | P 2.8 | M 2.57 | T 2.58 | Q 2.88 | S 1.99 | C 2.41 | E 2.96 | R 2.09 | W 1.89 | N 2.55 | F 2.33 | H 3.11 | I 2.27 | Y 2.14
L21: M 2.64 | S 2.51 | Y 2.41 | Q 2.3 | T 2.44 | D 2.81 | P 2.39 | E 2.74 | N 2.33 | K 2.32 | H 2.3 | A 2.4 | I 2.42 | R 1.98 | W 2.12 | G 2.49 | V 2.25 | C 2.71 | F 2.18
K15: F 1.69 | D 2.7 | L 2.36 | S 2.26 | V 1.94 | N 2.41 | A 2.09 | T 2.56 | G 2.49 | W 1.98 | R 1.81 | E 2.81 | I 1.77 | H 2.23 | P 1.99 | M 2.47 | Q 2 | Y 1.91 | C 2.12
S12: Y 2.19 | E 2.4 | Q 2.27 | N 2.63 | A 2.22 | H 1.98 | C 2.13 | T 2.01 | P 2.31 | L 1.64 | W 2.17 | F 2.53 | I 2.46 | D 2.79 | R 2.22 | G 2.07 | V 2.38 | K 2.71 | M 1.75
D19: A 2 | M 2.6 | E 2.43 | C 2.11 | K 1.91 | N 2.84 | W 2.35 | S 2.16 | T 1.83 | P 1.95 | F 2.24 | V 1.78 | G 1.92 | I 2.01 | Q 2.21 | Y 1.49 | H 1.47 | L 1.4
N6: V 1.58 | R 2.25 | Q 2.53 | S 2.1 | Y 1.64 | M 2.29 | P 2.28 | W 2.32 | T 1.94
K9: V 2.48 | W 2.37 | T 2.17 | C 1.94 | S 2.84 | F 3.15 | P 2.05 | I 2.51 | E 2.59 | Q 2.32 | Y 2.28 | D 2.37 | L 3.07 | N 2.32 | H 2.1 | A 2.15 | M 1.92 | G 2.39 | R 2.54
K10: E 2.29 | T 1.82 | M 1.94 | S 2.31 | F 2.48 | A 2.11 | Q 2.59 | C 2.29 | W 1.78 | I 1.89 | G 1.93 | L 2.17 | H 1.82 | V 2.04 | N 1.83 | P 1.88 | Y 1.68 | R 2.17 | D 2.56
L23: T 2.64 | K 2.71 | V 2.57 | A 2.96 | Q 2.33 | W 2.44 | H 2.02 | M 2.7 | C 2.53 | G 2.94 | S 3.21 | Y 1.94 | P 2.97 | N 2.9 | I 2.37 | E 2.86 | F 2.52 | D 2.76 | R 2.89
L17: D 2.92 | C 2.55 | Y 2.73 | R 2.58 | Q 3.16 | H 2.34 | I 2.43 | A 2.62 | W 1.69 | K 3 | V 2.8 | P 2.13 | G 2.88 | M 2.78 | N 2.77 | E 2.85 | S 2.41 | F 1.87 | T 2.79
N16: F 2.69 | T 2.41 | D 2.29 | R 1.98 | A 2.33 | G 2.3 | P 2.61 | L 2.14 | W 1.68 | I 2.18 | V 1.83 | E 2.73 | M 1.3 | Q 1.97 | H 2.28 | S 2.16 | K 2.04 | C 2.1 | Y 1.89
T20: S 2.66 | P 2.21 | C 1.82 | V 1.97 | Q 2.64 | G 2.45 | R 1.97 | M 2 | E 2.17 | H 1.75 | Y 1.88 | N 2.62 | D 2.3 | I 3.27 | A 2.33 | F 1.75 | L 2.07 | K 2.37
L13: A 3.01 | N 2.44 | T 2.63 | R 1.99 | V 2.64 | H 2.29 | D 2.8 | M 2.22 | C 1.97 | Y 2.52 | P 3.05 | K 2.38 | S 2.54 | W 2.04 | Q 2.64 | I 2.13 | F 1.86 | E 2.87 | G 2.41
V14: Y 1.98 | F 1.96 | S 2.07 | W 1.89 | H 1.84 | D 2.84 | M 2.46 | C 2.08 | G 2.04 | R 2.6 | A 2.53 | T 2.66 | Q 2.74 | K 2.25 | L 2.31 | P 2.3 | N 2.44 | I 2.35 | E 2.16
G24: E 3.21 | A 2.36 | C 2.2 | F 1.48 | D 2.8
K18: I 2.84 | P 2.56 | N 2.3 | F 1.33 | Q 2.48 | L 2.08 | V 2.42 | S 2.07 | W 1.8 | H 2.6 | M 1.72 | T 2.65 | C 2.94 | D 2.39 | G 1.84 | E 2.46 | A 2.25 | Y 2.41 | R 2.46
